According to the DeepSol protein solubility set:

test: soluble on expression in E. coli; label from the status in PepcDB or PDB records

Row | Sequence | soluble on expression in E. coli
1 | MGSDKIHHHHHHMIGDEPIRIRQLQALNILAESGTMSLTAKAMNISQPAVSRLLSDLSKELGYPLFSRSGRRLTLTREAQYLLPEIQRIFGAMGQIRNLRQNIQDGTSGHLKIACLPGFSTSHLPGVVADFLAARPKTTLTIEPDRPERILDWVIGEQYDCGITDGFRSHHALDSKTIPIRCVCIFPEGHPLEAKSVIHPEDLAGERIAHDRFGSEFYLRLRDILDAEGIAMDNFIETRQFTCACELVSKGVCVSVVSELDAQEYIGKGVSFRPFSANITHQLSLVWPRHTPTSILTLEFLGLFEKSLEPYAMTET | not soluble
2 | MGSDKIHHHHHHMIIDAHIHCSGDEKVDDVLQALDQAQVDKAVVLAPFLSGPYSMHDSASLRSANQYLSRLIGHHTDRLIGFAVINPSLEGACQDLVSAHELGLHGLKMVPAGWYPYDDCARDVYETAARLKIPILFHSGIFIDGKSGRFCRPSFYEAIRDYPDLRVTLAHLGWPWSDEANAVGLIDLINGVPPDNSQFRFDISFGAPPVYRLEVLRKAIDVLTPDLLQFGSDVFLPCSADLIKSRIDEVLMLLERLEVDKSSRDRIMGGTAAAWLGIN | not soluble
3 | MGSDKIHHHHHHMIIDRLFDSVEKKGHVCLGLDTDITYVPEEFCKKFNSIEDAIFNFNKKIIDATLDVVSCYKVQIAYYEAYGLKGLLAYKRTLEYLREKKAIAIADIKRGDIAKTAEMYAKAHFEGDFEADFVTLNPYMGLDGIEPYMPYIEKMEKGLFILLRTSNKGAYDIQYIKTQGGKNVYDEVGEKIYDLGQKATGRSKYSSIGAVVGCTHVEEGVEIRNKFKNMFFLIPGYGAQGGTAKEVSLYLREGNGGVVNSSRGILLAYKKEENGEKIFDECARLAAINMRDEIRKTL | not soluble
4 | MGSDKIHHHHHHMIIMRFLIKVKPEERKFRVPYNHQYFLQGLIYNRIKLTNPRLSTFLHETKGPKLFTYSLFMTERREHPKGLPYFLGYRRGFFYFSTCIPEIAEAFITGLFREPEITLWGEKFYLEEVKTLKEPKKFSGSTFITLSPIAVTMEKGGKRYDVSPLEEEFYALIRENLKDKYVMIKGEKPPDDFEMEIIAAKPKRFEVKPGIYQMAWHLVFRAYGDDELIRVGYVVGFGEKNSLGFGMVKVDEQRKRRKNIGSFQESMSFNENRELETGT | not soluble
5 | MGSDKIHHHHHHMIKICSVAFLSLLLSASSLFAQTKTFAGADYSQGIVFVMENNQMVWKHKAPDSNDLWILPNGNILFTTGHGVLEMTRQNDTIFHYESKSPVFACQRLKNGNTFVGECVTGRMLEISPKGKIVKETCILPKGVKDGGFAFMRNARRLDNGHFLVAHYGDQCVKEYDANGKVVWKLDVPGGPHSLTRLPNGHTLIAVADKDQNPRLIEVTPEGKTIWEISNADIPGKPLKFLGGFQYFSDGRFLITNWTGHVNPKEKVHLLLVDRQKNVLYSLENTPELQTMSSVYSTDKPAGVASYH | not soluble
6 | MGSDKIHHHHHHMILKTKLFGKVYQFTSVKEVLAKANEEKSGDKLAGVAANSAEERVAAKVVLSELSLNDLFNNPVVDYDEDEVTRIIIDQVNMRIFESIKHWTVAELREFILSSETTDFDIKRISRGLTSEMIAAVCKLMSNMDLIVGAKKINIEKTANTTIGRPGTFSNRLQPNHPTDNVDGIMASVMEGLSYGAGDALIGLNPVDDSTESVKRILNKFEEFRSEWEIPTQTCVLAHVTTQMEAMRQGAPTGLVFQSIAGSEKGNTAFGLNAEILAEAQDLALHSGQAAGPNVMYFETGQGSELSSEANFGADQVTMEARCYGLAKKFDPYIVNTVVGFIGPEYLYDSKQVIRAGLEDHFMGKLTGISMGCDVCYTNHMKADQNDMENLAMLLATAGCTYIMGIPHGDDVMLNYQTTGFHETATIRETLGLRPIKEFEEWMEKMGLMENGKLTSRAGDASVFIK | not soluble
7 | MGSDKIHHHHHHMILSDPRFVALSNWLYQYFGDKVAINLICGDASFRRYFRLHHQGIDYIVSDSPIDLVPIAPFLAMAKAYQHAGLLVPEVLATCNDYGFVLQTDVGELQLLSVLNKDNVTDYYKQALNLLPVIATVTETDNGPLADYDDTFVARELAIFVDWLLKEHLDYVLTDNEQQMIATTFSALTDNVLAQPKVGMHRDYHSRNLLINDQALAVIDFQDAVHGPVTYDAVSLLRDCYVRWPDDIVNHLMRYHYQLAIAHQLIDENVDFATYTKWFDLMGLQRHIKAAGIFARLYHRDGKRGYLADIPLTLQYVADIGIKYPQIADFSLWIHKVILPLVNHKNTHEVVSEA | not soluble
